We go through ten molecules from CN117736324A (BEIJING DONGFANG BIOTECH CO LTD; BEIJING JINGYI TAIXIANG …, dated 2024).

B1: MA-IV 鼠源抗Siglec-15单克隆抗体 (mouse IgG1/Ck) (antibody, V domains shown)
VH: EVKLQESGAELVKPGASVKLSCIASGFNIKDTFIHWVKQRPEQGLEWIGRIDPASGYTKYDPKFQGKATITTDTSSNTAYLQLSSLTSEDTAVYYCTRSGSYVSFVYWGQGTLVTVSA
VL: DIVMTQTPASLAVSLGQRATISCKASQSVDYDGDSYMNWYQQKPGQPPKLLIYAASNLESGIPARFSGSGSGTDFTLNIHPVEEEDAATYYCQQSNEDPWTFGGGTKLEIKA
notes: also called 鼠源抗体分子
B2: MA-I 鼠源抗Siglec-15单克隆抗体 (mouse IgG1/Ck) (antibody)
heavy: EVKLEQSGPELVKPGASVKISCKASGYTFTDYNMFWVKQSHGKTLEWIGYIYPDNGGTGYNQNFKSKATLTVDNSSSSAYMELRSLTSEDSAVYYCARSEYDYFDYWGQGTTLTVSSAKTTPPSVYPLAPGSAAQTNSMVTLGCLVKGYFPEPVTVTWNSGSLSSGVHTFPAVLQSDLYTLSSSVTVPSSTWPSETVTCNVAHPASSTKVDKKIVPRDCGCKPCICTVPEVSSVFIFPPKPKDVLTITLTPKVTCVVVDISKDDPEVQFSWFVDDVEVHTAQTQPREEQFNSTFRSVSELPIMHQDWLNGKEFKCRVNSAAFPAPIEKTISKTKGRPKAPQVYTIPPPKEQMAKDKVSLTCMITDFFPEDITVEWQWNGQPAENYKNTQPIMDTDGSYFVYSKLNVQKSNWEAGNTFTCSVLHEGLHNHHTEKSLSHSPG
light: DIVLTQSTSSLSASLGDRVTISCRASQDISNYLNWYQQKPDGTVKLLIYYTSRLHSGVPSRFSGSGSGTDYSLTISNLEQEDIATYFCQQGNTLPLTFGAGTKLELKADAAPTVSIFPPSSEQLTSGGASVVCFLNNFYPKDINVKWKIDGSERQNGVLNSWTDQDSKDSTYSMSSTLTLTKDEYERHNSYTCEATHKTSTSPIVKSFNRNEC
notes: also called MA-1; 鼠源抗体分子
B3: MA-II 鼠源抗Siglec-15单克隆抗体 (mouse IgG1/Ck) (antibody, V domains shown)
VH: EVKLEQSGGGLVKPGGSLKLSCAASGFTFSSYAMSWVRQSPEKRLEWVAEIISGGSHTYYPDTVTGRFTISRDDAKNTLYLEMSSLRSEDTAMYYCARDGNYGYAMDYWGQGTSVTVSS
VL: DIVITQTPAIMSASPGEKVTMTCRASSSVSSSYLHWYQQKSGASPKLWIYSTSNLASGVPARFSGGGSGTSYSLTISSVEAEDDATYYCQQWSGYPWTFGGGTKLEIKA
notes: also called 鼠源抗体分子
B4: MA-III 鼠源抗Siglec-15单克隆抗体 (mouse IgG1/Ck) (antibody, V domains shown)
VH: QVKLEESGPELVKPGASVKMSCKASGYIFTSYVMHWVRQKPGQGLEWIGYIDPYNDRTKYNEKFKGKATLTSDKSSSTAYMELSSLTSEDSAVYYCARSGDYGSSFDYWGQGTTLTVSS
VL: DIVMTQSPSSLSASLGERVSLTCRASQEISGYLSWLQQKPDGTIKRLIYAASTLDSGVPKRFSGSRSGSDYSLTISSLESEDFADYYCLQYASYPYTFGGGTKLEIKA
notes: also called 鼠源抗体分子
B5: 嵌合抗体CA-I (antibody, human IgG1, kappa, L234A L235A)
heavy: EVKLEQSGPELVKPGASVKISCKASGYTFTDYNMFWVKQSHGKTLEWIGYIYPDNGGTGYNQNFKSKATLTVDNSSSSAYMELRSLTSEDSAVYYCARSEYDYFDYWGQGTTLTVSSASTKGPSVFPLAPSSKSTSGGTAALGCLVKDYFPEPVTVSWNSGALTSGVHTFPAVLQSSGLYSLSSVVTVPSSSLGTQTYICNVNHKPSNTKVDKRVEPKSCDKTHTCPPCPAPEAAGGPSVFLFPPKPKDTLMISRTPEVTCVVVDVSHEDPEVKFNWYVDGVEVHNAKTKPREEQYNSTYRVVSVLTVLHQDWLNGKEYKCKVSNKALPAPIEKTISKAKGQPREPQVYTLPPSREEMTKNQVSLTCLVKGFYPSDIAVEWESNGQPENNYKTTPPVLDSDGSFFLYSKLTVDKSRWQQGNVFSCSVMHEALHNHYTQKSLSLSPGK
light: DIVLTQSTSSLSASLGDRVTISCRASQDISNYLNWYQQKPDGTVKLLIYYTSRLHSGVPSRFSGSGSGTDYSLTISNLEQEDIATYFCQQGNTLPLTFGAGTKLELKRTVAAPSVFIFPPSDEQLKSGTASVVCLLNNFYPREAKVQWKVDNALQSGNSQESVTEQDSKDSTYSLSSTLTLSKADYEKHKVYACEVTHQGLSSPVTKSFNRGEC
B6: 人源化抗体分子HA-II (human IgG1/Ck) (antibody, V domains shown)
VH: QVQLVQSGAEVKKPGASVKVSCKASGYTFTDYNMFWVRQAPGQRLEWIGYIYPDNGGTGYNQNFKSKATLTVDNSASTAYMELSSLRSEDTAVYYCARSEYDYFDYWGQGTLVTVSS
VL: DIQLTQSPSSLSASVGDRVTITCRASQDISNYLNWYQQKPGKAPKLLIYYTSRLHSGVPSRFSGSGSGTDYTFTISSLQPEDIATYFCQQGNTLPLTFGQGTKVELKR
notes: also called HA-Ⅱ
B7: MA-IV 噬菌体单克隆抗体 (phage-displayed scFv) (scFv, V domains shown)
VH: EVKLQESGAELVKPGASVKLSCIASGFNIKDTFIHWVKQRPEQGLEWIGRIDPASGYTKYDPKFQGKATITTDTSSNTAYLQLSSLTSEDTAVYYCTRSGSYVSFVYWGQGTLVTVSA
VL: DIVMTQTPASLAVSLGQRATISCKASQSVDYDGDSYMNWYQQKPGQPPKLLIYAASNLESGIPARFSGSGSGTDFTLNIHPVEEEDAATYYCQQSNEDPWTFGGGTKLEIK
notes: also called 抗Siglec-15噬菌体单克隆抗体
B8: MA-II 噬菌体单克隆抗体 (phage-displayed scFv) (scFv, V domains shown)
VH: EVKLEQSGGGLVKPGGSLKLSCAASGFTFSSYAMSWVRQSPEKRLEWVAEIISGGSHTYYPDTVTGRFTISRDDAKNTLYLEMSSLRSEDTAMYYCARDGNYGYAMDYWGQGTSVTVSS
VL: DIVITQTPAIMSASPGEKVTMTCRASSSVSSSYLHWYQQKSGASPKLWIYSTSNLASGVPARFSGGGSGTSYSLTISSVEAEDDATYYCQQWSGYPWTFGGGTKLEIK
notes: as for B7
B9: MA-I 噬菌体单克隆抗体 (phage-displayed scFv) (scFv, V domains shown)
VH: EVKLEQSGPELVKPGASVKISCKASGYTFTDYNMFWVKQSHGKTLEWIGYIYPDNGGTGYNQNFKSKATLTVDNSSSSAYMELRSLTSEDSAVYYCARSEYDYFDYWGQGTTLTVSS
VL: DIVLTQSTSSLSASLGDRVTISCRASQDISNYLNWYQQKPDGTVKLLIYYTSRLHSGVPSRFSGSGSGTDYSLTISNLEQEDIATYFCQQGNTLPLTFGAGTKLELK
notes: as for B7
B10: MA-III 噬菌体单克隆抗体 (phage-displayed scFv) (scFv, V domains shown)
VH: QVKLEESGPELVKPGASVKMSCKASGYIFTSYVMHWVRQKPGQGLEWIGYIDPYNDRTKYNEKFKGKATLTSDKSSSTAYMELSSLTSEDSAVYYCARSGDYGSSFDYWGQGTTLTVSS
VL: DIVMTQSPSSLSASLGERVSLTCRASQEISGYLSWLQQKPDGTIKRLIYAASTLDSGVPKRFSGSRSGSDYSLTISSLESEDFADYYCLQYASYPYTFGGGTKLEIK
notes: as for B7

In the first assay the target is T1, 人Siglec-15抗原 (Siglec-15蛋白胞外段) (human, UniProt Q6ZMC9 20-263).
T1 construct: extracellular domain
T1 sequence (looked up): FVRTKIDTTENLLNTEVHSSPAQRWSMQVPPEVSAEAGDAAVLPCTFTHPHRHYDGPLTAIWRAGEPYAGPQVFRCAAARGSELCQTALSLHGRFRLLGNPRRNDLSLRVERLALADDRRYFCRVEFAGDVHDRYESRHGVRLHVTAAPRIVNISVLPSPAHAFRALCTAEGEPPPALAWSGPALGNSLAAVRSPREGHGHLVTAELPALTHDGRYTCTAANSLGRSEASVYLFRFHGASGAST
Nature of the assay: ELISA, Siglec-15 coated, Goat Anti-Mouse IgG-HRP detection. (In general: An ELISA detects its analyte on a solid surface through an enzyme-linked reagent.)
As for B1, the binding result was “binds”.
In the case of B2, the binding result is reported as “binds”.
Consider B3, for which the binding result is “binds”.
B4: the binding result is on record as “binds”.

The next assay has as its target T1, 人Siglec-15抗原 (Siglec-15蛋白胞外段). Nature of the assay: ELISA, Siglec-15 coated, Goat Anti Human IgG-HRP detection.
As for B5, the binding result is “binds”.
Regarding B6, the binding result is recorded as “binds”.

For another assay the target is unchanged. The assay can be described thus: phage supernatant ELISA, screening of single clones.
Consider B7, for which the binding result is on record as “binds”.
Regarding B8, the binding result was “binds”.
The same measure, in the same setting: for B9 the value was “binds”.
The same measure, in the same setting: for B10 the value was “binds”.
